The data set can be described thus: Phase 1 open label, multi-arm, multi-center study of MK-4830 as monotherapy or in combination with pembrolizumab (NCT03564691): safety and tolerability. It is filed as in vivo, human.

Consider “MK-4830: anti-ILT4 antibody; light chain SEQ ID NO:5, heavy chain SEQ ID NO:10 (Table 4)”, for which, for the setting “1600 mg dose level, MK-4830 monotherapy cohort”, the “Grade 3 drug-related AE” value is “one episode of transient Grade 3 blood pressure increase”. For the setting “51 treated participants (monotherapy and pembrolizumab combination pooled), preliminary data, majority Grade 1”, the “participants with one or more drug-related AEs” value stood at 51%. Moreover, the “Grade 4 or 5 drug-related AEs or SAEs” value (all participants (51 treated), preliminary data) is recorded as “no Grade 4 or 5 drug-related AEs or SAEs”. Moreover, the “target dose limiting toxicity (DLT) rate” value (participants with advanced solid tumors, MK-4830 monotherapy up to 1600 mg and MK-4830 up to 800 mg plus pembrolizumab, May 10, 2019 data cutoff) is “not reached in any of the cohorts”.

Values taken from patent US20250011453A1, “METHODS FOR TREATING CANCER USING A COMBINATION OF A PD-1 ANTAGONIST, AN ILT4 ANTAGONIST, AND CHEMOTHERAPEUTIC AGENTS” (Merck Sharp & Dohme LLC, priority 2021, published 2025).
